The text below walks through data of patent US20230134571A1 (INTERNATIONAL AIDS VACCINE INITIATIVE, published 2023).

Some targets named below: HIV Env, isolate T278-50 (HIV); HIV Env, isolate CNE21 (HIV); HIV Env, isolate 6535.3 (HIV).
What all share (experiment): cell-based or functional assay
The target of experiment [1] is HIV Env, isolate 1054_07_TC4_1499 (HIV).
Experiment [2] has as its target HIV Env, isolate Du156.12 (HIV).
In experiment [3] the target is HIV Env, isolate 6811.v7.c18 (HIV).
In experiment [4] the target is HIV Env, isolate RHPA4259.7 (HIV).
For experiment [5], the target named is HIV Env, isolate X2088_C9 (HIV).
Experiment [6] has as its target HIV Env, isolate 7030102001E5(Rev-) (HIV).
The target of experiment [7] is HIV Env, isolate ZM249M.PL1 (HIV).
Experiment [8] concerns the target HIV Env, isolate X1632_S2_B10 (HIV).
Experiment [9] addresses HIV Env, isolate 89-F1_2_25 (HIV).
In experiment [10] the target is HIV Env, isolate Ce704809221_1B3 (HIV).
In experiment [11] the target is HIV Env, isolate CAP210.2.00.E8 (HIV).
Experiment [12] concerns the target HIV Env, isolate AC10.0.29 (HIV).
The target in experiment [13] is HIV Env, isolate HIV-16055-2.3 (HIV).
For experiment [14], the target named is HIV Env, isolate SC422661.8 (HIV).
Experiment [15] deals with HIV Env, isolate Ce1172_H1 (HIV).

A value given as a limit tells only on which side of the number the result lay.

B1: ePGDM9 (antibody, V domains shown)
VH: QAQLVQSGPEVRKPGTSVKVSCKNPGNTLTTYDLHWVRQVPGQGLQWMGWISHEGDKKVIVERFKAKVTIDWDRSTNTAYLQLSGLTSEDTAVYYCAKGSKHRLRDYALYDEDGALNWAVDVDYLANLEFWGQGTAVTVSS
VL: DIVLTQSPLSLSVTPGESASISCKSSQSLIHGDRNNYLAWYVQKPGRSPQLLIDLASERASGVPDRFSGSGSRKDFTLKISRVETEDVGTYYCMQGRESPWTFGQGTKVDIK
Consider B1, for which the “IC80 (µg/ml) with constrains” value with HIV Env, isolate T278-50 was 2.02 µg/mL; in [1] it was greater than 100 µg/mL; in experiment [2], 0.016 µg/mL; in experiment [3] it was greater than 100 µg/mL; in experiment [4], 0.578 µg/mL; in [5] it was greater than 100 µg/mL. Also, the “IC80 (µg/ml) with constrains” value is greater than 100 µg/mL in experiment [6]; 0.007 µg/mL with HIV Env, isolate CNE21; greater than 100 µg/mL in the experiment with HIV Env, isolate 6535.3; 0.008 µg/mL in experiment [7]; 0.01 µg/mL in experiment [8]; 0.004 µg/mL in experiment [9]. Further, the “IC80 (µg/ml) with constrains” value in experiment [10] was determined as 0.539 µg/mL; in experiment [11], 0.221 µg/mL; in [12], 0.298 µg/mL; in experiment [13], 0.006 µg/mL; in [14] it was 5.33 µg/mL; in experiment [15] it was 0.108 µg/mL.

B2: ePGDM13 (antibody, V domains shown)
VH: QAQLVQSGPEVRKPGTSVKVSCKNPGNTLTTYDLHWVRQVPGQGLQWMGWISHEGDKKVIVERFKAKVTIDWDRSTNTAYLQLSGLTSEDTAVYYCAKGSKHRLRDYALYDEDGALNWAVDVDYLANLEFWGQGTAVTVSS
VL: DIVLTQSPLSLSVTPGESASISCKSSHSLQHGDRNNYLAWYVQKPGRSPQLLLDLASERASGVPDRFSGSGSEKDFTLKISRVETEDVGTYYCMQGRESPWTFGQGTKVDIK
On to B2, for which the “IC80 (µg/ml) with constrains” value in the experiment with HIV Env, isolate T278-50 is 6.4 µg/mL; in experiment [1], greater than 100 µg/mL; in [2], 0.026 µg/mL; in [3] it was greater than 100 µg/mL; in experiment [4], 1.43 µg/mL; in experiment [5], greater than 100 µg/mL. Also, the “IC80 (µg/ml) with constrains” value in experiment [6] was greater than 100 µg/mL; with HIV Env, isolate CNE21, 0.006 µg/mL; in the experiment with HIV Env, isolate 6535.3, greater than 100 µg/mL; in [7], 0.056 µg/mL; in experiment [8] it was 0.013 µg/mL; in [9], 0.006 µg/mL. Besides, the “IC80 (µg/ml) with constrains” value in [10] was 1.36 µg/mL; in experiment [11], 0.538 µg/mL; in [12], 0.776 µg/mL; in [13] it was 0.011 µg/mL; in experiment [14], 6.26 µg/mL; in experiment [15] it was 0.242 µg/mL.

B3: ePGDM5 (antibody, V domains shown)
VH: QAQLVQSGPEVRKPGTSVKVSCKNPGNTLTTYDLHWVRQVPGQGLQWMGWISHEGDKKVIVERFKAKVTIDWDRSTNTAYLQLSGLTSEDTAVYYCAKGSKHRLRDYALYDEDGALNWAVDVDYLANLEFWGQGTAVTVSS
VL: DFVLTQSPLSLSVTPGESASISCKSDHSLQHGDRNNYLAWYVQKPGRSPQLLIDLASERASGVPDRFSGSGSRKDFTLKIDRVEAEDVGTYYCMQGRESPWTFGQGTKVDIK
Take B3: the “IC80 (µg/ml) with constrains” value with HIV Env, isolate T278-50 is 4.23 µg/mL; in experiment [1], greater than 100 µg/mL; in [2] it was 0.026 µg/mL; in experiment [3] it was greater than 100 µg/mL; in experiment [4], 1.86 µg/mL; in experiment [5], greater than 100 µg/mL. In addition, the “IC80 (µg/ml) with constrains” value is greater than 100 µg/mL in experiment [6]; 0.007 µg/mL with HIV Env, isolate CNE21; greater than 100 µg/mL with HIV Env, isolate 6535.3; 0.138 µg/mL in experiment [7]; 0.012 µg/mL in experiment [8]; 0.006 µg/mL in [9]. Also, the “IC80 (µg/ml) with constrains” value in [10] amounted to 0.749 µg/mL; in experiment [11], 0.226 µg/mL; in experiment [12] it was 1.1 µg/mL; in experiment [13], 0.007 µg/mL; in experiment [14] it was 5.33 µg/mL; in experiment [15], 0.065 µg/mL.

B4: PGDM1400 (antibody, V domains shown)
VH: QVHLTQSGPEVRKPGTSVKVSCKAPGNTLKTYDLHWVRSVPGQGLQWMGWISHEGDKKVIVERFKAKVTIDWDRSTNTAYLQLSGLTSGDTAVYYCAKGSKHRLRDYALYDDDGALNWAVDVDYLSNLEFWGQGTAVTVSS
VL: DFVLTQSPHSLSVTPGESASISCKSSHSLIHGDRNNYLAWYVQKPGRSPQLLIYLASSRASGVPDRFSGSGSDKDFTLKISRVETEDVGTYYCMQGRESPWTFGQGTKVDIK
Consider B4, for which the “IC80 (µg/ml) with constrains” value is 21.7 µg/mL with HIV Env, isolate T278-50; greater than 100 µg/mL in [1]; 0.025 µg/mL in experiment [2]; greater than 100 µg/mL in experiment [3]; 1.96 µg/mL in experiment [4]; greater than 100 µg/mL in [5]. Also, the “IC80 (µg/ml) with constrains” value in [6] is greater than 100 µg/mL; with HIV Env, isolate CNE21, 0.011 µg/mL; in the experiment with HIV Env, isolate 6535.3, greater than 100 µg/mL; in experiment [7], 0.101 µg/mL; in experiment [8], 0.135 µg/mL; in experiment [9], 0.013 µg/mL. Also, the “IC80 (µg/ml) with constrains” value in experiment [10] turned out to be 1.28 µg/mL; in [11] it was 1.32 µg/mL; in experiment [12], 2.19 µg/mL; in experiment [13] it was 0.013 µg/mL; in experiment [14], 62.8 µg/mL; in experiment [15] it was 0.872 µg/mL.
